Columns and labels:
[1] = TEVC, Xenopus oocytes; settings: glycan lost
[2] = eGFP fluorescence microscopy with WGA membrane stain, HeLa; settings: glycan lost; control: hTREK-1-WT-eGFP
[3] = TEVC, Xenopus oocytes, +20 mV, 48 h; settings: glycan lost; control: wild type
[4] = surface biotinylation, streptavidin pull-down, immunoblot, HEK-293T; settings: glycan lost; control: wild type
[5] = TEVC, oocytes, 24 h versus 48 h; settings: glycan lost; control: wild type
[6] = TEVC pulse step protocol, oocytes, 48 h; settings: glycan lost; control: wild type
[7] = TEVC, Xenopus oocytes, +20 mV, 24/48 h; settings: glycan lost; control: DMSO vehicle
[8] = TEVC pulse step protocol, oocytes; settings: glycan lost; control: DMSO vehicle

Protein | other: resting membrane potential ([1]; control: wild type) | localisation_or_trafficking [2] | other: channel current, percent_of_wt [3] | localisation_or_trafficking, other: reduction of surface fraction relative to WT [4] | other: current at 24 h relative to 48 h (onset of current), other: 24 h current as % of 48 h current [5] | other: current-voltage relationship [6] | other results
hTREK-1 / hK2P2.1: N110Q (protein) parent chain: MLPSASRERPGYRAGVAAPDLLDPKSAAQNSKPRLSFSTKPTVLASRVESDTTINVMKWKTVSTIFLVVVLYLIIGATVFKALEQPHEISQRTTIVIQKQTFISQHSCVNSTELDELIQQIVAAINAGIIPLGNTSNQISHWDLGSSFFFAGTVITTIGFGNISPRTEGGKIFCIIYALLGIPLFGFLLAGVGDQLGTIFGKGIAKVEDTFIKWNVSQTKIRIISTIIFILFGCVLFVALPAIIFKHIEGWSALDAIYFVVITLTTIGFGDYVAGGSDIEYLDFYKPVVWFWILVGLAYFAAVLSMIGDWLRVISKKTKEEVGEFRAHAAEWTANVTAEFKETRRRLSVEIYDKFQRATSIKRKLSAELAGNHNQELTPCRRTLSVNHLTSERDVLPPLLKTESIYLNGLTPHCAGEEIAVIENIK | changes | no change | decreases | decreases, reduction of surface protein expression (about 16 % for both, N110Q and N134Q) | decreases, 54 vs 57 % to 66% | no change | 
hTREK-1 / hK2P2.1: tunicamycin coinjection (2 or 3 ng per oocyte) (protein) parent chain: MLPSASRERPGYRAGVAAPDLLDPKSAAQNSKPRLSFSTKPTVLASRVESDTTINVMKWKTVSTIFLVVVLYLIIGATVFKALEQPHEISQRTTIVIQKQTFISQHSCVNSTELDELIQQIVAAINAGIIPLGNTSNQISHWDLGSSFFFAGTVITTIGFGNISPRTEGGKIFCIIYALLGIPLFGFLLAGVGDQLGTIFGKGIAKVEDTFIKWNVSQTKIRIISTIIFILFGCVLFVALPAIIFKHIEGWSALDAIYFVVITLTTIGFGDYVAGGSDIEYLDFYKPVVWFWILVGLAYFAAVLSMIGDWLRVISKKTKEEVGEFRAHAAEWTANVTAEFKETRRRLSVEIYDKFQRATSIKRKLSAELAGNHNQELTPCRRTLSVNHLTSERDVLPPLLKTESIYLNGLTPHCAGEEIAVIENIK |  |  |  |  |  |  | other: channel current [7]: decreases
hTREK-1 / hK2P2.1: tunicamycin (incubation or injection) (protein) parent chain: MLPSASRERPGYRAGVAAPDLLDPKSAAQNSKPRLSFSTKPTVLASRVESDTTINVMKWKTVSTIFLVVVLYLIIGATVFKALEQPHEISQRTTIVIQKQTFISQHSCVNSTELDELIQQIVAAINAGIIPLGNTSNQISHWDLGSSFFFAGTVITTIGFGNISPRTEGGKIFCIIYALLGIPLFGFLLAGVGDQLGTIFGKGIAKVEDTFIKWNVSQTKIRIISTIIFILFGCVLFVALPAIIFKHIEGWSALDAIYFVVITLTTIGFGDYVAGGSDIEYLDFYKPVVWFWILVGLAYFAAVLSMIGDWLRVISKKTKEEVGEFRAHAAEWTANVTAEFKETRRRLSVEIYDKFQRATSIKRKLSAELAGNHNQELTPCRRTLSVNHLTSERDVLPPLLKTESIYLNGLTPHCAGEEIAVIENIK |  |  |  |  |  |  | other: resting membrane potential ([1]; control: DMSO vehicle): changes
hTREK-1 / hK2P2.1: N110Q/N134Q (protein) parent chain: MLPSASRERPGYRAGVAAPDLLDPKSAAQNSKPRLSFSTKPTVLASRVESDTTINVMKWKTVSTIFLVVVLYLIIGATVFKALEQPHEISQRTTIVIQKQTFISQHSCVNSTELDELIQQIVAAINAGIIPLGNTSNQISHWDLGSSFFFAGTVITTIGFGNISPRTEGGKIFCIIYALLGIPLFGFLLAGVGDQLGTIFGKGIAKVEDTFIKWNVSQTKIRIISTIIFILFGCVLFVALPAIIFKHIEGWSALDAIYFVVITLTTIGFGDYVAGGSDIEYLDFYKPVVWFWILVGLAYFAAVLSMIGDWLRVISKKTKEEVGEFRAHAAEWTANVTAEFKETRRRLSVEIYDKFQRATSIKRKLSAELAGNHNQELTPCRRTLSVNHLTSERDVLPPLLKTESIYLNGLTPHCAGEEIAVIENIK | changes | no change | decreases, a current reduction of 65.5 ± 0.7 % in nonglycosylated subunits | decreases, accompanied by a reduction in surface expression of 70.2% | decreases, 31 vs 57 % to 66% | no change | 
hTREK-1 / hK2P2.1: N134Q (protein) parent chain: MLPSASRERPGYRAGVAAPDLLDPKSAAQNSKPRLSFSTKPTVLASRVESDTTINVMKWKTVSTIFLVVVLYLIIGATVFKALEQPHEISQRTTIVIQKQTFISQHSCVNSTELDELIQQIVAAINAGIIPLGNTSNQISHWDLGSSFFFAGTVITTIGFGNISPRTEGGKIFCIIYALLGIPLFGFLLAGVGDQLGTIFGKGIAKVEDTFIKWNVSQTKIRIISTIIFILFGCVLFVALPAIIFKHIEGWSALDAIYFVVITLTTIGFGDYVAGGSDIEYLDFYKPVVWFWILVGLAYFAAVLSMIGDWLRVISKKTKEEVGEFRAHAAEWTANVTAEFKETRRRLSVEIYDKFQRATSIKRKLSAELAGNHNQELTPCRRTLSVNHLTSERDVLPPLLKTESIYLNGLTPHCAGEEIAVIENIK | changes | no change | decreases | decreases | decreases, 41 vs 57 % to 66% | no change | 
hTREK-1 / hK2P2.1: tunicamycin incubation (0.75 or 1.5 mg/L) (protein) parent chain: MLPSASRERPGYRAGVAAPDLLDPKSAAQNSKPRLSFSTKPTVLASRVESDTTINVMKWKTVSTIFLVVVLYLIIGATVFKALEQPHEISQRTTIVIQKQTFISQHSCVNSTELDELIQQIVAAINAGIIPLGNTSNQISHWDLGSSFFFAGTVITTIGFGNISPRTEGGKIFCIIYALLGIPLFGFLLAGVGDQLGTIFGKGIAKVEDTFIKWNVSQTKIRIISTIIFILFGCVLFVALPAIIFKHIEGWSALDAIYFVVITLTTIGFGDYVAGGSDIEYLDFYKPVVWFWILVGLAYFAAVLSMIGDWLRVISKKTKEEVGEFRAHAAEWTANVTAEFKETRRRLSVEIYDKFQRATSIKRKLSAELAGNHNQELTPCRRTLSVNHLTSERDVLPPLLKTESIYLNGLTPHCAGEEIAVIENIK |  |  |  |  |  |  | other: channel current [7]: decreases, tunicamycin treatment (incubation with 1.5 mg/L) resulted in a current reduction of 79.4%
hTREK-1 / hK2P2.1: tunicamycin (protein) parent chain: MLPSASRERPGYRAGVAAPDLLDPKSAAQNSKPRLSFSTKPTVLASRVESDTTINVMKWKTVSTIFLVVVLYLIIGATVFKALEQPHEISQRTTIVIQKQTFISQHSCVNSTELDELIQQIVAAINAGIIPLGNTSNQISHWDLGSSFFFAGTVITTIGFGNISPRTEGGKIFCIIYALLGIPLFGFLLAGVGDQLGTIFGKGIAKVEDTFIKWNVSQTKIRIISTIIFILFGCVLFVALPAIIFKHIEGWSALDAIYFVVITLTTIGFGDYVAGGSDIEYLDFYKPVVWFWILVGLAYFAAVLSMIGDWLRVISKKTKEEVGEFRAHAAEWTANVTAEFKETRRRLSVEIYDKFQRATSIKRKLSAELAGNHNQELTPCRRTLSVNHLTSERDVLPPLLKTESIYLNGLTPHCAGEEIAVIENIK |  |  |  |  |  |  | other: current-voltage relationship [8]: no change

From PMC6829520
